Assay results from paper PMC3086336.
Where a chain is given by its changes, count along the chain named. In names and notes the source's numbering stands.

B1: Spt6(1247–1451) (domain or fragment)
chain: AKRTHRVINHPYYFPFNGRQAEDYLRSKERGEFVIRQSSRGDDHLVITWKLDKDLFQHIDIQELEKENPLALGKVLIVDNQKYNDLDQIIVEYLQNKVRLLNEMTSSEKFKSGTKKDVVKFIEDYSRVNPNKSVYYFSLNHDNPGWFYLMFKINANSKLYTWNVKLTNTGYFLVNYNYPSVIQLCNGFKTLLKSNSSKNRMNNYR
B2: R1282A/S1284A Spt6(1247–1451) (domain or fragment)
chain: B1 chain with R36A, S38A

What was measured:
Assay in all cases: fluorescence polarisation
[1] = biological target: unphosphorylated form of the RNAPII-CTD (peptide)
[2] = biological target: pSer5 RNAPII CTD di-heptad repeat peptide
[3] = biological target: pSer2 RNAPII CTD di-heptad repeat peptide
[4] = biological target: pSer(2,5) RNAPII CTD di-heptad repeat peptide
[5] = biological target: pTyr1 RNAPII CTD di-heptad repeat peptide

Row | Binder | Kd [1] | Kd [2] | Kd [3] | Kd [4] | fold decrease of binding against WT Spt6(1247–1451) [2] | fold decrease of binding against WT Spt6(1247–1451) [3] | fold decrease of binding against WT Spt6(1247–1451) [5]
1 | B1 | > 1000 µM | 245 µM | 197 µM | 23 µM |  |  | 
2 | B2 |  |  |  |  | 1.4 fold | 1.2 fold | 2.4 fold
